Molecular target: T1, Mu-type opioid receptor (Homo sapiens) (Homo sapiens, UniProt P35372 1-400)
T1 construct: Endogenous receptor of PANC-1 cells, PANC-1 MCTS, normal pancreatic epithelial cells and patient tissue (fixed cells or cell lysates); also called MOR; mu opioid receptor
Assay: co-immunoprecipitation: lysates of normal pancreatic epithelial cells or PANC-1 cells, IP anti-MOR, blot anti-CXCR4
Excerpt: FIG. 3A-3D: There is no co-localization between MOR and CXCR4. FIG. 3A. […] Peak centers are shown. FIG. 3B. […] Peak centers are shown. FIG. 3C. Cross-correlation curves with s.e.m show no co-localization between MOR and CXCR4 in PANC-1 cells (diamonds, N=32 regions from 14 cells), PANC-1 MCTS (triangles, N=20 regions from 12 cells), and normal pancreatic epithelial cells (circles, N=21 regions from 13 cells). In all cases no long-range correlations were observed. FIG. 3D. Cell lysates from either normal pancreatic epithelial cells or PANC-1 cells were immunoprecipitated with anti-MOR antibody and immunoblotted with anti-CXCR4 antibody. CXCR4 was not detected in the MOR immunoprecipitate in either cell line.
Co-immunoprecipitation was performed using the co-immunoprecipitation kit (Pierce) per the manufacturer's protocol. Briefly, MOR antibody was immobilized using a coupling resin. PANC-1 or normal pancreatic epithelial cells were lysed using buffer containing 1% Nonidet P-40, 10% glycerol, 50 mM Tris-Cl, pH 7.4, 300 mM NaCl, 1.5 mM MgCl₂, 1 mM CaCl₂ and protease inhibitor tablets (Pierce) similarly as described before (Rozenfeld and Devi, 2007), pre-cleared and added to the antibody coupled resin and incubated with gentle shaking overnight at 4° C. After thorough washes, the protein sample co-immunoprecipitate was eluted and used for Western blotting with SSTR2 or CXCR4 antibodies. […]

T1 sequence (P35372 whole entry): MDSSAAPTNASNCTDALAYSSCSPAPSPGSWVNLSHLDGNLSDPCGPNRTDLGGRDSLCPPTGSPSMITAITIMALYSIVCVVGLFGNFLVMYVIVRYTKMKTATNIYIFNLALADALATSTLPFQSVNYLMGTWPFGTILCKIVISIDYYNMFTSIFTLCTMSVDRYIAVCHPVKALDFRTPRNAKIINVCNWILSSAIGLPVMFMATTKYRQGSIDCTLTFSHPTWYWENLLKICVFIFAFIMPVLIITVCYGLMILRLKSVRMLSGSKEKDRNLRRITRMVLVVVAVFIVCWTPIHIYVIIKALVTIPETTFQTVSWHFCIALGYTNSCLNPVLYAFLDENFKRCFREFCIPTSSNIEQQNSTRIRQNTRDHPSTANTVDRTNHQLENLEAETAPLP

B1: C-X-C motif receptor 4 (CXCR4) (receptor, human, UniProt P61073 1-352, looked up)
chain: MEGISIYTSDNYTEEMGSGDYDSMKEPCFREENANFNKIFLPTIYSIIFLTGIVGNGLVILVMGYQKKLRSMTDKYRLHLSVADLLFVITLPFWAVDAVANWYFGNFLCKAVHVIYTVNLYSSVLILAFISLDRYLAIVHATNSQRPRKLLAEKVVYVGVWIPALLLTIPDFIFANVSEADDRYICDRFYPNDLWVVVFQFQHIMVGLILPGIVILSCYCIIISKLSHSKGHQKRKALKTTVILILAFFACWLPYYIGISIDSFILLEIIKQGCEFENTVHKWISITEALAFFHCCLNPILYAFLGAKFKTSAQHALTSVSRGSSLKILSKGKRGGHSSVSTESESSSFHSS
notes: whole, on cells; Endogenous receptor in fixed cells or cell lysates
  binding result: no binding
